The target of assay [1] is cyno pro-myostatin (cynomolgus monkey). The assay is described as follows: ELISA-type titration, OD 450 nm, Cyno-Pro-GDF-8 Plate 1; protocol not described in the text. A general note: ELISA stands for enzyme-linked immunosorbent assay.
Assay [2] has the same target. The assay is described as follows: ELISA-type titration, OD 450 nm, Cyno-Pro-GDF-8 Plate 2; protocol not described in the text.
Assay [3] deals with T1, murine pro-myostatin (mouse, UniProt O08689 25-376, biotinylated (SPR)).
T1 construct: also called proGDF8 (mouse); mouse pro-myostatin
The assay is described as follows: ELISA-type titration, OD 450 nm, Mu-Pro-GDF-8 Plate 1; protocol not described in the text.

Assay [4] addresses T1, murine pro-myostatin. Kind of assay: ELISA-type titration, absorbance 450 nm, panel Murine Pure Pro-GDF-8; protocol not described in the text.
The target in another assay is T2, human pro-myostatin (human, UniProt O14793 24-375, biotinylated (SPR)).
T2 construct: Disulfide-linked homodimer; also called proGDF8 (human)
The assay is described as follows: SPR Biacore 8K, biotinylated antigen captured. In general terms: In SPR one partner is held on a chip, and binding of the other changes the refractive index at the surface.

B1: Ab110 (antibody, human IgG4 S228P, kappa, V domains shown)
VH: QVQLVQSGAEVKKPGASVKVSCKVSEYTFTNYDIHWVRQAPGKGLEWMGGISAYHGNAIYAQKFQGRVTMTEDTSTDTAYMELSSLKSEDTAVYYCARDRVRRDYYNFGMDVWGQGTTVTVSS
VL: DIQMTQSPSSVSASVGDRVTITCRASEDITSYLAWYQQKPGKAPKLLIYDVSSLQSGVPSRFSGSGSGTDFTLTISSLQPEDFANYYCLQHNAYPYGFGGGTKVEIKR
The term EC50 (read off the curve) denotes the concentration needed to bring the measured effect to its halfway point. A lower EC50 (read off the curve) goes with an effect from little substance. B1 showed an EC50 (read off the curve) in assay [1] of 0.3 nM.

B2: Ab116 (antibody, human IgG4 S228P, kappa, V domains shown)
VH: QVQLVQSGAEVKKPGASVKVSCKVSGFTFSRPAIHWVRQAPGKGLEWMGGINPNAATTIYAQKFQGRVTMTEDTSTDTAYMELSSLKSEDTAVYYCARGRLLREWELRPYDTWGQGTLVTVSS
VL: DIQMTQSPSSVSASVGDRVTITCRASQSIGKSLAWYQQKPGKAPKLLIYSASNLRSGVPSRFSGSGSGTDFTLTISSLQPEDFANYYCQQYRDVPPITFGGGTKVEIKR
B2 had an EC50 (read off the curve) in assay [2] of 0.5 nM.

B3: Ab113 (antibody, human IgG4 S228P, kappa, V domains shown)
VH: QVQLVQSGAEVKKPGASVKVSCKVSGYLLTELSIHWVRQAPGKGLEWMGGIIPSFGTAIYAQKFQGRVTMTEDTSTDTAYMELSSLKSEDTAVYYCAISYSGFDLLPLDKWGQGTLVTVSS
VL: DIQMTQSPSSVSASVGDRVTITCRASQHISTWLAWYQQKPGKAPKLLIYYASSLQGGVPSRFSGSGSGTDFTLTISSLQPEDFANYYCLQTYTYPRTFGGGTKVEIKR
For the molecule B3, the binding result in the assay with murine pro-myostatin [3] is reported as “binds”.

B4: Ab104 (antibody, human IgG4 S228P, kappa, V domains shown)
VH: EVQLVESGGGLVQPGGSLRLSCAASGSAFSSYGMSWVRQAPGKGLELVASINSNGGSTYYPDSVKGRFTISRDNAKNSLYLQMNSLRAEDTAVYYCARDLLVKFLSWSHYYGMDVWGQGTTVTVSS
VL: DIVMTQSPLSLPVTPGEPASISCRSSQSLLHSSGHNFLHWYLQKPGQSPQLLIYEVSNRVSGVPDRFSGSGSGTDFTLKISRVEAEDVGVYYCMQQTQYPPTFGGGTKVEIKR
Turning to B4, the “EC50 (read off the curve)” value in the assay with murine pro-myostatin [4] was about 0.7 nM.

B5: Ab109 (antibody, human IgG4 S228P, kappa, V domains shown)
VH: EVQLVESGGGLVQPGGSLRLSCAASGFTFSSYGMSWVRQAPGKGLELVASFTGSGGTYYPDSVKGRFTISRDNAKNSLYLQMNSLRAEDTAVYYCARDLLIRFLEWSHYYGMDVWGQGTTVTVSS
VL: B4 VL
notes: also called Ab109 Human IgG4
For orientation: koff means a measure of how fast the partners let go of each other. A high value points to fast dissociation. In turn, B5 displayed a koff with human pro-myostatin of about 0.000916 s⁻¹.

Source of the values: US20250122274A1 (SCHOLAR ROCK, published 2025).
